We go through 3 molecules from paper PMC4112721 (2013).

The assay concerns the target HIV-1 envelope glycoprotein gp120 IIIB (HIV-1 (isolate IIIB), UniProt P04578 33-511). The experiment in a line: SPR.

B1: VRC01 from stably transformed (transgenic) Nicotiana tabacum plants (antibody, V domains shown)
VH: QVQLVQSGGQMKKPGESMRISCRASGYEFIDCTLNWIRLAPGKRPEWMGWLKPRGGAVNYARPLQGRVTMTRDVYSDTAFLELRSLTVDDTAVYFCTRGKNCDYNWDFEHWGRGTPVIVSS
VL: EIVLTQSPGTLSLSPGETAIISCRTSQYGSLAWYQQRPGQAPRLVIYSGSTRAAGIPDRFSGSRWGPDYNLTISNLESGDFGVYYCQQYEFFGQGTKVQVD
modifications: N-glycan at N297 in the CH2 region (glycopeptide […]), GnGnXF^3 as the major glycan structure | N-glycan in the FR3 of the VL region (glycopeptide […]), GnGnXF^3 as the major glycan structure
Usually koff stands for the first-order rate constant of dissociation. The low end stands for slow dissociation, the high end for fast dissociation. B1 showed a koff of 0.000126 s⁻¹.

B2: VRC01 from transiently transformed Nicotiana benthamiana plants (antibody, V domains shown)
VH: B1 VH
VL: B1 VL
modifications: N-glycan at N297 in the CH2 region (glycopeptide […]), GnGnXF^3 as the major glycan structure | N-glycan in the FR3 of the VL region (glycopeptide […]), GnGnXF^3 as the major glycan structure
For the molecule B2, the off-rate constant (koff) was found to be 0.000159 s⁻¹.

B3: VRC01 from HEK cells (antibody, V domains shown)
VH: B1 VH
VL: B1 VL
modifications: N-glycan at N297 in the CH2 region (glycopeptide […]), GnGnF^6 as the predominant glycan structure | N-glycan in the FR3 of the VL region (glycopeptide […]), at least ten glycan structures
Consider B3, for which the koff is 5.6e-05 s⁻¹.
